{
  "source": "the RNAGym collection of RNA variant scans (doi:10.1073/pnas.2313332121)",
  "parents": {"B1": {"name": "TPR 5TU (parent)", "chain": "GGAUCUUCUCGAUCUAACAAAAAAGACAAAUCUGCCACAAAGCUUGAGAGCAUCUUCGGAUGCAGAGGCGGCAGCCUUCGGUGGCGCGAUAGCGCCAACGUUCUCAACUAUGACACGCAAAACGCGUGCUCCGUUGAAUGGAGUUUAUCAUG"}},
  "note": "Fewer inactive variants are shown than the library holds.",
  "data": [
    {"variants_of": "B1", "test": "polymerase ribozyme fitness, log enrichment relative to wild type (log ratio); higher = more active; in vitro selection for triplet polymerase activity", "summary_of_the_method": "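For each subunit of a heterodimeric triplet polymerase ribozyme, a mutant library was built by PCR and transcribed, then taken through a single in vitro selection round in triplicate. Selection involved annealing to a biotinylated primer, the partner subunit and triplets, incubation frozen at −7 °C, gel excision of extended constructs, capture on streptavidin beads and RT-PCR. Genotypes were retained after Illumina sequencing of inputs and outputs only with ≥10 input reads and ≥1 read in each output. Fitness is defined as the logarithm of a genotype's enrichment relative to wild-type enrichment, using inverse-variance-weighted averages across replicates, with the logarithm taken to base 2.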", "values": [
      {"variant": "G71U A147C", "polymerase ribozyme fitness (log ratio)": -3.65},
      {"variant": "A106C G152U", "polymerase ribozyme fitness (log ratio)": -2.57},
      {"variant": "A40C G86A G141C A147C", "polymerase ribozyme fitness (log ratio)": "≤ -4.2"},
      {"variant": "U82C G86A", "polymerase ribozyme fitness (log ratio)": -2.06},
      {"variant": "A17U U101G", "polymerase ribozyme fitness (log ratio)": 0.484},
      {"variant": "A20C C76G", "polymerase ribozyme fitness (log ratio)": "≤ -4.2"},
      {"variant": "C72U A147C", "polymerase ribozyme fitness (log ratio)": -1.72},
      {"variant": "U6G G59C C85U G92U U127A", "polymerase ribozyme fitness (log ratio)": "≤ -4.2"},
      {"variant": "G11U A91G", "polymerase ribozyme fitness (log ratio)": -3.82},
      {"variant": "C5G C10G A28U U33G C79U", "polymerase ribozyme fitness (log ratio)": "≤ -4.2"},
      {"variant": "G59C C95A", "polymerase ribozyme fitness (log ratio)": -0.188},
      {"variant": "C10U G88U", "polymerase ribozyme fitness (log ratio)": "≤ -4.2"},
      {"variant": "C93A A142U C149A", "polymerase ribozyme fitness (log ratio)": "≤ -4.2"},
      {"variant": "C5G G92A C96A", "polymerase ribozyme fitness (log ratio)": -3.11},
      {"variant": "U9C A22G A23C G25C G83C", "polymerase ribozyme fitness (log ratio)": "≤ -4.2"},
      {"variant": "G46C C54U A66G G94A C95A G143A", "polymerase ribozyme fitness (log ratio)": "≤ -4.2"},
      {"variant": "C18G A22G A23C C69A G86U", "polymerase ribozyme fitness (log ratio)": "≤ -4.2"},
      {"variant": "A49C G84C", "polymerase ribozyme fitness (log ratio)": "≤ -4.2"},
      {"variant": "G50A G94C C95G U144C", "polymerase ribozyme fitness (log ratio)": "≤ -4.2"},
      {"variant": "A16G U33G U90G C114U G117U A138C A150G", "polymerase ribozyme fitness (log ratio)": "≤ -4.2"},
      {"variant": "G48C C51U C85U C129A U145C", "polymerase ribozyme fitness (log ratio)": "≤ -4.2"},
      {"variant": "A17G A39C G68C C93G", "polymerase ribozyme fitness (log ratio)": "≤ -4.2"},
      {"variant": "G58A G86U", "polymerase ribozyme fitness (log ratio)": -1.12},
      {"variant": "C38A C93G C96U A115G G117A", "polymerase ribozyme fitness (log ratio)": "≤ -4.2"},
      {"variant": "C8U C57U A60C A97U A115U", "polymerase ribozyme fitness (log ratio)": "≤ -4.2"},
      {"variant": "U61A C87U U102C C103G U130C", "polymerase ribozyme fitness (log ratio)": "≤ -4.2"},
      {"variant": "G42A G58A A64C G65U G84U", "polymerase ribozyme fitness (log ratio)": "≤ -4.2"},
      {"variant": "A22G A24U U55A C75G C76A C95G G124U G136U", "polymerase ribozyme fitness (log ratio)": "≤ -4.2"},
      {"variant": "A49G G58A", "polymerase ribozyme fitness (log ratio)": -0.296},
      {"variant": "C36G U44G G71U C96A C108G G140C", "polymerase ribozyme fitness (log ratio)": "≤ -4.2"},
      {"variant": "G84U G136A G141C", "polymerase ribozyme fitness (log ratio)": -1.29},
      {"variant": "U45G U53A C75A C93A A113G", "polymerase ribozyme fitness (log ratio)": "≤ -4.2"},
      {"variant": "C8U A12G A28C C38U C57G C95U", "polymerase ribozyme fitness (log ratio)": "≤ -4.2"},
      {"variant": "A17C C35U G74A C76A U78G", "polymerase ribozyme fitness (log ratio)": "≤ -4.2"},
      {"variant": "G46A C87U A89C G94A A113C", "polymerase ribozyme fitness (log ratio)": "≤ -4.2"},
      {"variant": "A16U C27A A28U C54U C75U G92C G136U", "polymerase ribozyme fitness (log ratio)": "≤ -4.2"},
      {"variant": "U31G A40G G83C A142G", "polymerase ribozyme fitness (log ratio)": "≤ -4.2"},
      {"variant": "A24U C93U A142C", "polymerase ribozyme fitness (log ratio)": -2.21},
      {"variant": "A21U C96U A97U U127C U139G", "polymerase ribozyme fitness (log ratio)": -2.62},
      {"variant": "C14G C32G", "polymerase ribozyme fitness (log ratio)": -4.17},
      {"variant": "A12U G67U G84A A110U", "polymerase ribozyme fitness (log ratio)": "≤ -4.2"},
      {"variant": "A20C C99G", "polymerase ribozyme fitness (log ratio)": -1.06},
      {"variant": "U4G A23U A26U C27G C63U U90G C93A C108U C114U C129G G140C", "polymerase ribozyme fitness (log ratio)": "≤ -4.2"},
      {"variant": "A20C A30G G50U C95G A147G", "polymerase ribozyme fitness (log ratio)": "≤ -4.2"},
      {"variant": "C5G A41G C85U C95U A122U C132A", "polymerase ribozyme fitness (log ratio)": -3.5},
      {"variant": "A19U G48C C75U U77C C93G A122U A150C", "polymerase ribozyme fitness (log ratio)": "≤ -4.2"},
      {"variant": "A91U G141A U144G", "polymerase ribozyme fitness (log ratio)": "≤ -4.2"},
      {"variant": "C5G U31A C54U G67C A110U A121G", "polymerase ribozyme fitness (log ratio)": "≤ -4.2"},
      {"variant": "C93G C96U", "polymerase ribozyme fitness (log ratio)": -3.61},
      {"variant": "A16U G83A A106G A107C C118U C123G C129G A150G", "polymerase ribozyme fitness (log ratio)": "≤ -4.2"},
      {"variant": "C57A G94A", "polymerase ribozyme fitness (log ratio)": -0.487},
      {"variant": "U55A G71C A106U C125A", "polymerase ribozyme fitness (log ratio)": "≤ -4.2"},
      {"variant": "G84C A142G", "polymerase ribozyme fitness (log ratio)": -3.03},
      {"variant": "U6G A22U A40G C57A G94A", "polymerase ribozyme fitness (log ratio)": -2.43},
      {"variant": "C93U G143C", "polymerase ribozyme fitness (log ratio)": -3.12},
      {"variant": "A16G A37C G46A G50C C87A G92A A138C A147U", "polymerase ribozyme fitness (log ratio)": "≤ -4.2"},
      {"variant": "G65C G71U", "polymerase ribozyme fitness (log ratio)": "≤ -4.2"},
      {"variant": "C8G A24G U33G G59A G71A G74A U144C", "polymerase ribozyme fitness (log ratio)": "≤ -4.2"},
      {"variant": "G88A A91C", "polymerase ribozyme fitness (log ratio)": "≤ -4.2"},
      {"variant": "C27A G46U G50U U56A G70C U101G", "polymerase ribozyme fitness (log ratio)": "≤ -4.2"},
      {"variant": "C38A A40U G48U C87G C99U G124A G140C", "polymerase ribozyme fitness (log ratio)": "≤ -4.2"},
      {"variant": "U15G C76G G86C A122U G133C A142G U148G", "polymerase ribozyme fitness (log ratio)": "≤ -4.2"},
      {"variant": "A28U A41C C96A G141C", "polymerase ribozyme fitness (log ratio)": -4.02},
      {"variant": "A12C C85G", "polymerase ribozyme fitness (log ratio)": -2.59},
      {"variant": "U53A U135A", "polymerase ribozyme fitness (log ratio)": -1.55},
      {"variant": "U13A C85U U135A", "polymerase ribozyme fitness (log ratio)": -1.44},
      {"variant": "A47C C85G U134G", "polymerase ribozyme fitness (log ratio)": -4.19},
      {"variant": "G83U C95U C123U G143U", "polymerase ribozyme fitness (log ratio)": -3.65},
      {"variant": "A39G C51U A52U G74A", "polymerase ribozyme fitness (log ratio)": "≤ -4.2"},
      {"variant": "A20U G74A A137U", "polymerase ribozyme fitness (log ratio)": "≤ -4.2"},
      {"variant": "G58U U78G C79U G80A C85U C96U A106G A147C", "polymerase ribozyme fitness (log ratio)": "≤ -4.2"},
      {"variant": "C18G G42A C54U G94A", "polymerase ribozyme fitness (log ratio)": "≤ -4.2"},
      {"variant": "C35U C36A U55G U127A", "polymerase ribozyme fitness (log ratio)": -3.9},
      {"variant": "C54G G68C G80A G94U A98G", "polymerase ribozyme fitness (log ratio)": "≤ -4.2"},
      {"variant": "C54U C87G A142C", "polymerase ribozyme fitness (log ratio)": "≤ -4.2"},
      {"variant": "A12U C14U G50C A60G G74U C85U", "polymerase ribozyme fitness (log ratio)": "≤ -4.2"},
      {"variant": "C35U C116A", "polymerase ribozyme fitness (log ratio)": -0.104},
      {"variant": "G50A C93U G152A", "polymerase ribozyme fitness (log ratio)": -3.09},
      {"variant": "U53A G80C G143U", "polymerase ribozyme fitness (log ratio)": "≤ -4.2"},
      {"variant": "U6A C18G U56A A106G", "polymerase ribozyme fitness (log ratio)": -0.358},
      {"variant": "G59U", "polymerase ribozyme fitness (log ratio)": -0.206},
      {"variant": "G84A C132G", "polymerase ribozyme fitness (log ratio)": -3.59},
      {"variant": "C96A C132G", "polymerase ribozyme fitness (log ratio)": -3.72},
      {"variant": "G50U G70A G136U", "polymerase ribozyme fitness (log ratio)": "≤ -4.2"}
    ]}
  ]
}
